Laboratory results from US11098288B2, “D-type amino acid dehydrogenase” (Kureha Corporation, priority 2017, dated 2021).

Columns and labels:
[1] = Optimum temperature in catalytic reaction; assay type: biochemical, Thermosyntropha lipolytica; settings: meso-diaminopimelic acid as substrate, NADP^+
Text: The measurement results are illustrated in FIG. 6.

[2] = Activity-staining with D-alanine or L-alanine as substrate; assay type: biochemical, Thermosyntropha lipolytica; settings: 10 mM D-alanine or L-alanine, 1.25 mM NADP^+, pH 8.0, 50° C., 30 minutes
Protocol: The activity was evaluated for the D-type amino acid dehydrogenase obtained in Example 2 above. The activity of the enzyme was evaluated by an activity-staining method due to a catalytic reaction of the enzyme. More specifically, an appropriate amount of enzyme solution was subjected to disc gel electrophoresis. […] The 2-(4-iodophenyl)-3-(4-nitrophenyl)-5-phenyl-2H-tetrazolium chloride in the reaction solution is reduced to form a […] formazan. A reaction formula is indicated below. In the following reaction formula, the D-type amino acid dehydrogenase is referred to as “meso-DAPDH”.

[3] = Optimum pH in catalytic reaction (deamination of meso-diaminopimelic acid); assay type: biochemical, Thermosyntropha lipolytica; settings: NADP^+, 50° C.
Protocol: The optimum pH was evaluated for the D-type amino acid dehydrogenase obtained in Example 2. The activity of the enzyme was measured by determining an increase in absorbance at wavelength of 340 nm of NADPH produced by the enzymatic catalytic reaction.
The absorbance was measured by an ultraviolet-visible spectrophotometer UV-1800 (available from SHIMADZU). The specific activity of the enzyme was calculated from the concentration of the enzyme used and enzyme dilution rate using the obtained absorbance change and the following equation.

[4] = pH stability of the enzyme (residual activity after treatment in buffers); assay type: physicochemical, Thermosyntropha lipolytica; settings: pH 5.0 to 9.5, 50° C. for 30 minutes, 100 mM buffer; activity at pH 9.0 as 100%
Protocol: The D-type amino acid dehydrogenase purified in Example 2 was heat-treated at 50° C. for 30 minutes in each 100 mM buffer solution (pH 1.5, 2.0, 2.5, 3.0, 3.5, 4.0, 4.5, 5.0, 5.5, 6.0, 6.5, 7.0, 7.5, 8.0, 8.5, 9.0, 9.5, 10.0, 10.5, 11.0, or 11.3), and the residual activity after standing for 5 minutes in ice was confirmed. […] The activity in the treatment at pH 9.0 was defined as 100%, and the residual activity after the treatment at other pH was calculated as the relative activity.

[5] = Thermal stability of the enzyme (residual activity after heat treatment); assay type: physicochemical, Thermosyntropha lipolytica; settings: 70° C., 30 minutes, 10 mM phosphate buffer pH 7.2; activity at 50° C. as 100%
Protocol: The D-type amino acid dehydrogenase purified in Example 2 was heat-treated for 30 minutes under various temperature conditions (50, 55, 60, 65, or 70° C.) in 10 mM phosphate buffer solution (pH 7.2), and the residual activity after standing for 5 minutes in ice was confirmed. […] The residual activity after treatment at other temperatures was calculated as a relative activity, with the activity at 50° C. as 100%.

B1: D-type amino acid dehydrogenase: D-type amino acid dehydrogenase derived from Thermosyntropha lipolytica, amino acid sequence SEQ ID NO: 2, hexamer (protein, listed as Thermosyntropha lipolytica)
chain: MGEKIRVAIVGYGNIGRYALDAIKAAPDMELAGVVRRSSSLGDKPAELADVPVVGSIKELTGVKVALLCTPTRSVPEYAREILALGINTVDSYDIHGQLADLRLELDKVAKEHNAVAVISAGWDPGTDSMVRCMFEFMAPKGITYTNFGPGMSMGHSVAVKAVKGVKNALSMTIPLGTGVHRRMVYVELEPGADFAQVEKAVKTDPYFVKDETHVIQVEDVDALIDMGHGVLMERKGVSGGTHNQLLSFSMRINNPALTAQIMVASARASVKQKPGAYTMIQIPIIDYMYGDPDEIIRQLV
modifications: hexamer
optimum temperature for activity [1]: about 55 °C
stereoselectivity for substrate (activity-staining) [2]: selectively acts on the D-amino acid
optimum pH for activity [3]: 10.5
residual activity after pH treatment [4]: ≥ 90%
residual activity after heat treatment [5]: about 74%
